Laboratory results published in patent US8748407B2 (The Research Foundation for the State University of New York, priority 2010, dated 2014).

Target: T1, GluA2Qflip (Rattus norvegicus, UniProt P19491)
T1 construct: expressed in transfected cells; host or cells: HEK-293S
Experiment: Whole-cell current recording, GluA2Qflip in HEK-293 cells
Format: cell-based
Source text: The original cDNAs in pBlueScript encoding rat GluA1, 2 and 3 AMPA receptors and GluK2 kainate receptor were kindly provided by Steve Heinemann. The GluA4 DNA plasmid was kindly provided by Peter Seeburg. The GluK1 plasmid was kindly provided by Geoffrey Swanson. The cDNAs of all three NMDA receptor subunits were gifts from John Woodward. All DNA plasmids were propagated using Escherichia coli host (DH5α) and purified using QIAGEN DNA purification kits.
All of the receptors were transiently expressed in HEK-293S cell. HEK-293S cells were maintained in Dulbecco's modified Eagle's medium (DMEM) supplemented with 10% fetal bovine serum and 1% penicillin in a 37° C., 5% CO2, humidified incubator. Receptors were transiently transfected by using calcium phosphate or lipofectamine 2000 (Invitrogen). The DNA plasmids encoding green fluorescent protein (GFP) and T-antigen (TAg) were cotransfected in HEK-293 S cells. GFP was used as a transfection marker for cell recording, and TAg was cotransfected to potentiate the receptor expression at the single-cell level^6. Transfected cells were allowed to grow for 48 hour before they were used for recording.
The procedure for whole-cell current recording to assay the inhibitory property of an RNA aptamer is known to those of skill in the art and has been previously described^7. […] The extracellular buffer composition is described above (see “Receptor Preparation”). For recording of the NMDA channels, the intracellualr solution contained (in mM) 140 CsCl, 1 MgCl2, 0.1 EGTA, and 10 HEPES (pH 7.2 adjusted by […]), while the extracellular solution contained (in mM) 135 NaCl, 5.4 KCl, 1.8 CaCl2, 10 glucose and 5 HEPES (pH 7.2 adjusted by NaOH). In the extracellular buffer, 2 μM of glycine was added (glycine was the co-agonist of NMDA receptor)^2. All reagents including aptamer were dissolved in the corresponding extracellular buffer and used. […] The whole-cell current was recorded using an Axopatch-200B amplifier at a cutoff frequency of 2-20 kHz by a built-in, eight-pole Bessel filter and digitized at 5-50 kHz sampling frequency using a Digidata 1322A from Axon Instruments (Molecular Devices, Sunnyvale, Calif.). The pClamp 8 software (Molecular Devices) was used for data acquisition. All whole-cell recordings were at −60 mV and 22° C.
To deliver AG56 to a HEK-293 cell, a “Ψ”-shaped flow device was used. […] In all experiments reported in this study, a 6-second preincubation flow protocol was used for full aptamer preincubation. […] The corrected current amplitude was used for data analysis.
Determination of KI,app by the ratio of the current amplitude in the absence and presence of inhibitor or A/A(I)—see FIG. 5 in the text. Equ. 10a and 10b were derived based on one inhibitor binding to the receptor. KI, app is the apparent inhibition constant for the inhibitor; other terms have been defined previously.
Under this condition, the inhibition constant for the closed-channel conformation was determined from the ratio of the amplitude according to equ. 10a and 10b. Likewise, at a saturating ligand concentration (i.e., L>>K1), the majority of the receptors were in the open-channel state. Consequently, the inhibition constant associated with the open-channel conformation was measured. The basis of using the two ligand concentrations that corresponded to ˜4% and ˜96% fraction of the open-channel receptor form^7 to determine the corresponding inhibition constant was a putative difference in inhibition constant between the closed-channel and the open-channel conformation. At those low and high ligand concentrations^7, the apparent inhibition constants obtained were considered pertinent to the closed-channel and the open-channel conformations, respectively. Examples of using the current amplitude to determine the inhibition constant for an inhibitor include our previous study of two 2,3-benzodiazepine derivatives with the GluA2Qflip AMPA receptor^15.

T1 sequence (P19491 22-883 isoform P19491-2): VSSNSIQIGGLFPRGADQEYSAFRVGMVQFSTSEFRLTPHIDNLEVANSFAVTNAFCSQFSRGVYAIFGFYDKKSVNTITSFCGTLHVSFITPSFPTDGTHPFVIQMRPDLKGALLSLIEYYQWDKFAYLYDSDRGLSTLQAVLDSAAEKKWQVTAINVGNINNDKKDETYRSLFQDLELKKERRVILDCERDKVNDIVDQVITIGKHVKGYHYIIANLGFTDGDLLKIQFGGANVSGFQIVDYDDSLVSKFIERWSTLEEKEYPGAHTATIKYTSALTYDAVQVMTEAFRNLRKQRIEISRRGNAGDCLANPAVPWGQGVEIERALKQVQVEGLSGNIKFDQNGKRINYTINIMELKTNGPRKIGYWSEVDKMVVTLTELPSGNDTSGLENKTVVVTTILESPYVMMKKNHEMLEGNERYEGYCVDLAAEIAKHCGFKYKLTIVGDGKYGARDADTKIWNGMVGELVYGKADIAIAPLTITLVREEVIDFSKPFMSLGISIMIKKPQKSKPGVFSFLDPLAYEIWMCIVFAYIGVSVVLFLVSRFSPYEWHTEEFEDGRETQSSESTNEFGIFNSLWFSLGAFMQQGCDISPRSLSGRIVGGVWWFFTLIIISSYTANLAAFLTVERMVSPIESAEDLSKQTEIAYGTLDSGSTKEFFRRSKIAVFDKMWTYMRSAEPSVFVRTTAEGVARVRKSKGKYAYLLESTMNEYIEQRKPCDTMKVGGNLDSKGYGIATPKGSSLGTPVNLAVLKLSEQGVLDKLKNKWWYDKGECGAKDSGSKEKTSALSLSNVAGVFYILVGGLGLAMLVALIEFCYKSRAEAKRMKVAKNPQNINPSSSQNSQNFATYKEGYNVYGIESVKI

Molecule | inhibitory function of shorter versions of AG1407, based on A/A(I) (GluA2Qflip) | A/A(I) value (0.5 μM AG1407, 0.5 mM glutamate) | A/A(I) value (0.5 μM AG1407, 3 mM glutamate) | A/A(I), ratio of current amplitudes in absence and presence of aptamer (500 nM aptamer, 3 mM glutamate) | inhibition of the open-channel conformation (GluA2Qflip, high glutamate concentration)
48 nt RNA: truncated AG1407 version with base-paired stem in first stem-loop region truncated (GGAGAAUCAACUCAUCUAGAGAUUGUGAAGCGUAGGCUCGAUUUGUCC; listed as RNA, chemistry not given here) | total loss of inhibitory function |  |  |  | 
46 nt RNA: truncated AG1407 version with three-way junction shortened by deleting UUGUGA sequence (GGAGAAUCAACUGCCAUCUAGGCAGAAGCGUAGGCUCGAUUUGUCC; listed as RNA, chemistry not given here) | total loss of inhibitory function |  |  |  | 
45 nt RNA: truncated AG1407 version with the bulge at the U50 position removed (GGUUCAACUGCCAUCUAGGCAGAUUGUGAAGCGUAGGCUCGAGCC; listed as RNA, chemistry not given here) | total loss of inhibitory function |  |  |  | 
AG1407: full length 100-nt RNA aptamer, most enriched SELEX sequence against GluA2Qflip (nucleic acid, RNA, backbone not given here) GGGAGAAUUCAACUGCCAUCUAGGCAGAUUGUGAAGCGUAGGCUCGAGUUUGUCCCGCGAGCCAAAGAUUCCAGAAGUACUACAAGCUUCUGGACUCGGU |  | significantly larger than 1.0 | significantly larger than 1.0 | one of the most potent inhibitors | inhibited the open-channel
